Experimental data taken from patent US20170145113A1 (Genentech, published 2017).
Where two headings read alike, the source gives them in different places.

Experiments:
[1] = target: T1, His-tagged human HtrA1 protease domain (human, UniProt Q92743 161-367); test: SPR (BIACORE T200), huHtrA1-PD-His captured by anti-His, Fab injected
T1 construct: His-tagged protease domain; also called huHtrA1-PD-His; huHtrA1-PD
Procedure: These combination mutants included both a variant light chain and a variant heavy chain. BIACORE™ kinetic analysis was performed (as described below in Section C) using the combination mutants.
(§1) To determine the binding affinity of selected Fab variants for HtrA1, SPR measurement with a BIACORE™ T200 instrument was performed. Briefly, a series S sensor chip CM5 was activated with 1-EDC and NHS reagents according to the supplier's instructions, and anti-His antibody was coupled to achieve 200-300 response units (RU), then following by blocking un-reacted groups with 1 M ethanolamine. For kinetics measurements, approximately 5 nM of huHtrA1-PD-His was first injected at 10 μl/min flow rate to capture approximately 100 RU at 2 different flow cells (FC), except for FC1 (which served as a reference). Next, 5-fold serial dilutions of Fab in HBS-P buffer (0.01M HEPES pH 7.4, 0.15M NaCl, 0.005% surfactant P20) from low (0.8 nM) to high (50 nM) were injected (flow rate: 30 μl/min). The binding responses on HtrA1 were corrected by subtracting of RU from a blank flow cell. The sensorgram was recorded and subject to reference and buffer subtraction before evaluating by BIACORE® T200 Evaluation Software (version 2.0). Association rates (kₒₙ) and dissociation rates (koff) were calculated using a simple one-to-one Langmuir binding model. The equilibrium dissociation constant (KD) was calculated as the ratio of koff/kₒₙ.

[2] = target: T1, His-tagged human HtrA1 protease domain; test: as above; remark: listed apart in the source
Procedure: as §1

T1 sequence (Q92743 other isoform, or with tags, fused parts or gaps limits assumed): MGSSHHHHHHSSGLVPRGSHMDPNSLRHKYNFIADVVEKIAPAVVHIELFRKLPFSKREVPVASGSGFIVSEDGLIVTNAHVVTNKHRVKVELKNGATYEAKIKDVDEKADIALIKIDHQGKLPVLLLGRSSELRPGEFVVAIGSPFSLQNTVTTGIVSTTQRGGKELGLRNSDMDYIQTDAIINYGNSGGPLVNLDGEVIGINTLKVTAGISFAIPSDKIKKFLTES

B1: combination mutant LC3.HC2 Fab (Fab, V domains shown)
VH: EVQLVQSGAEVKKPGASVKVSCKASGYTFRDSEMHWVRQAPGQGLEWIGGVDPETDGAAYNQKFKGRATITRDTSTSTAYLELSSLRSEDTAVYYCTRGYDYDYALDYWGQGTLVTVSS
VL: DIQMTQSPSSLSASVGDRVTITCRASSSVEFIHWYQQKPGKAPKPLISATSNLASGVPSRFSGSGSGTDFTLTISSLQPEDFATYYCQQWSSNPWTFGQGTKVEIK
notes: Fab
With B1 the Kd [1] was 0.302 nM, the koff [1] was 0.000109 s⁻¹ and the kon [1] was 362000 M⁻¹ s⁻¹.

B2: h15H6.v2 variant LC10 (LC-F32V, LC-S92K) Fab (Fab, V domains shown)
VH: EVQLVQSGAEVKKPGASVKVSCKASGYTFTDSEMHWVRQAPGQGLEWIGGVDPETDGAAYNQKFKGRATITRDTSTSTAYLELSSLRSEDTAVYYCTRGYDYDYALDYWGQGTLVTVSS
VL: DIQMTQSPSSLSASVGDRVTITCRASSSVNVIHWYQQKPGKAPKPLISATSNLASGVPSRFSGSGSGTDFTLTISSLQPEDFATYYCQQWKSNPWTFGQGTKVEIK
notes: Fab-Flag tag fusion from 293T cells
B2 gave a Kd [2] of 8.42 nM, a koff [2] of 0.00213 s⁻¹ and a kon [2] of 253000 M⁻¹ s⁻¹.

B3: h15H6.v2 variant LC2 (LC-N31H) Fab (Fab, V domains shown)
VH: EVQLVQSGAEVKKPGASVKVSCKASGYTFTDSEMHWVRQAPGQGLEWIGGVDPETDGAAYNQKFKGRATITRDTSTSTAYLELSSLRSEDTAVYYCTRGYDYDYALDYWGQGTLVTVSS
VL: DIQMTQSPSSLSASVGDRVTITCRASSSVHFIHWYQQKPGKAPKPLISATSNLASGVPSRFSGSGSGTDFTLTISSLQPEDFATYYCQQWSSNPWTFGQGTKVEIK
notes: as for B2
B3 gave a Kd [2] of 0.836 nM, a koff [2] of 0.00019 s⁻¹ and a kon [2] of 228000 M⁻¹ s⁻¹.

B4: h15H6.v2 variant HC8 (HC-Y100I) Fab (Fab, V domains shown)
VH: EVQLVQSGAEVKKPGASVKVSCKASGYTFTDSEMHWVRQAPGQGLEWIGGVDPETDGAAYNQKFKGRATITRDTSTSTAYLELSSLRSEDTAVYYCTRGYDYDIALDYWGQGTLVTVSS
VL: DIQMTQSPSSLSASVGDRVTITCRASSSVNFIHWYQQKPGKAPKPLISATSNLASGVPSRFSGSGSGTDFTLTISSLQPEDFATYYCQQWSSNPWTFGQGTKVEIK
notes: as for B2
Binder B4 has a Kd [2] of 0.603 nM, a koff [2] of 0.000237 s⁻¹ and a kon [2] of 393000 M⁻¹ s⁻¹.

B5: h15H6.v2 variant HC9 (HC-A100aP) Fab (Fab, V domains shown)
VH: EVQLVQSGAEVKKPGASVKVSCKASGYTFTDSEMHWVRQAPGQGLEWIGGVDPETDGAAYNQKFKGRATITRDTSTSTAYLELSSLRSEDTAVYYCTRGYDYDYPLDYWGQGTLVTVSS
VL: DIQMTQSPSSLSASVGDRVTITCRASSSVNFIHWYQQKPGKAPKPLISATSNLASGVPSRFSGSGSGTDFTLTISSLQPEDFATYYCQQWSSNPWTFGQGTKVEIK
notes: as for B2
With B5 the Kd [2] was 0.618 nM, the koff [2] was 0.00021 s⁻¹ and the kon [2] was 340000 M⁻¹ s⁻¹.

B6: h15H6.v2 variant LC9 (LC-S93I) Fab (Fab, V domains shown)
VH: EVQLVQSGAEVKKPGASVKVSCKASGYTFTDSEMHWVRQAPGQGLEWIGGVDPETDGAAYNQKFKGRATITRDTSTSTAYLELSSLRSEDTAVYYCTRGYDYDYALDYWGQGTLVTVSS
VL: DIQMTQSPSSLSASVGDRVTITCRASSSVNFIHWYQQKPGKAPKPLISATSNLASGVPSRFSGSGSGTDFTLTISSLQPEDFATYYCQQWSINPWTFGQGTKVEIK
notes: as for B2
With B6 the Kd [2] was 2.15 nM, the koff [2] was 0.000404 s⁻¹ and the kon [2] was 188000 M⁻¹ s⁻¹.

B7: h15H6.v2 variant LC1 (LC-S29R) Fab (Fab, V domains shown)
VH: EVQLVQSGAEVKKPGASVKVSCKASGYTFTDSEMHWVRQAPGQGLEWIGGVDPETDGAAYNQKFKGRATITRDTSTSTAYLELSSLRSEDTAVYYCTRGYDYDYALDYWGQGTLVTVSS
VL: DIQMTQSPSSLSASVGDRVTITCRASSRVNFIHWYQQKPGKAPKPLISATSNLASGVPSRFSGSGSGTDFTLTISSLQPEDFATYYCQQWSSNPWTFGQGTKVEIK
notes: as for B2
Binder B7 has a Kd [2] of 1.55 nM, a koff [2] of 0.000229 s⁻¹ and a kon [2] of 148000 M⁻¹ s⁻¹.

B8: h15H6.v2 variant LC5 (LC-N53E) Fab (Fab, V domains shown)
VH: EVQLVQSGAEVKKPGASVKVSCKASGYTFTDSEMHWVRQAPGQGLEWIGGVDPETDGAAYNQKFKGRATITRDTSTSTAYLELSSLRSEDTAVYYCTRGYDYDYALDYWGQGTLVTVSS
VL: DIQMTQSPSSLSASVGDRVTITCRASSSVNFIHWYQQKPGKAPKPLISATSELASGVPSRFSGSGSGTDFTLTISSLQPEDFATYYCQQWSSNPWTFGQGTKVEIK
notes: as for B2
B8 showed a Kd [2] of 0.481 nM, a koff [2] of 0.000212 s⁻¹ and a kon [2] of 441000 M⁻¹ s⁻¹.

B9: h15H6.v2 variant HC2 (HC-T30R) Fab (Fab, V domains shown)
VH: EVQLVQSGAEVKKPGASVKVSCKASGYTFRDSEMHWVRQAPGQGLEWIGGVDPETDGAAYNQKFKGRATITRDTSTSTAYLELSSLRSEDTAVYYCTRGYDYDYALDYWGQGTLVTVSS
VL: DIQMTQSPSSLSASVGDRVTITCRASSSVNFIHWYQQKPGKAPKPLISATSNLASGVPSRFSGSGSGTDFTLTISSLQPEDFATYYCQQWSSNPWTFGQGTKVEIK
notes: as for B2
B9 showed a Kd [2] of 0.449 nM, a koff [2] of 0.000164 s⁻¹ and a kon [2] of 366000 M⁻¹ s⁻¹.
